In US20210171624A1 (ELIXIRON IMMUNOTHERAPEUTICS HONG KONG, published 2021):
Numbering of substitutions follows the chain as printed.

T1: recombinant human IFN-γ protein (human, UniProt P01579 24-166, limits assumed)
T1 sequence: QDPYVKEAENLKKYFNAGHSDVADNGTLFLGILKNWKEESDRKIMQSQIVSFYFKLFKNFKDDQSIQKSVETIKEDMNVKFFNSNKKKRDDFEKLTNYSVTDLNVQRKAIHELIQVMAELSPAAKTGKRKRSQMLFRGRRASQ

T2: rhesus macaque/cynomolgus IFN-γ (rhesus macaque/cynomolgus, UniProt P63310 24-165)
T2 construct: also called R&D systems 961-RM-025
T2 sequence (looked up): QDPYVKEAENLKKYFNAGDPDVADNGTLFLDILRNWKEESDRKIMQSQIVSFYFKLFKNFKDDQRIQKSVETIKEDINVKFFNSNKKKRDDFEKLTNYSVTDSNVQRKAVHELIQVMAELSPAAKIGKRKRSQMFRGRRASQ

B1: antibody 2B6 (antibody, human IgG1, V domains shown)
VH: EVQLVESGGGLVKPGGSLRLSCAASGFPFSRYSMHWVRQAPGKGLEWVSSMTSRTNHKYYADSLKGRFLISRDNDRDSLYLEMNSLGVEDTAIYFCARGYDTSGSDSGVDFQYWGQGTLVTVSS
VL: NFMLTQPHSVSESPGKTITISCTRGRGYIASYYVQWYQQRPGGVPKIVVFEDTQRPSGVPDRISGSIDTSTNSASLTISGLQTEDEADYYCQSYDDANHVIFGGGTKLTVL
notes: Human IgG1 lambda
B2: antibody 1E8 (antibody, human IgG1, V domains shown)
VH: EVQLLESGGGLVQPGGPLRLSCAASGFTFSIYSMNWVRQAPGKGLEWVSSISGSGDNTYYADSVKGRFTITRDSSKNTLYLQMNTLRAEDTAVYFCAKSGRNIISPGFDSWGQGTLVTVSS
VL: QPVLTQPPSASASLGASVTLTCTLNSDYGDYKVDWYQQRPGKGPRFVMRVGTGGIVGSKGDGIPDRFSVLGSGLNRFLTIKNIQEEDESDYYCGADHGSANNFIWVFGGGTKLTVL
notes: Human IgG1 lambda
B3: antibody 2F2 (antibody, human IgG1, V domains shown)
VH: EVQLVESGGGLVKPGESLRLACVASGFNFSDYYMTWIRQAPGKGLEWVSYISNSGSHTYYADAVKGRFTVSRDNAKNSLYLQMTSLRGEDTAIYFCARDPSIMRGTYYMDVWGKGTTVTVSS
VL: QSVLTQPPSASGTPGQRVTISCSGSSSNIGTNPVSWYQQFPGMAPKLLIYFNNQRPSGVPERFSGSKSGTPASLAIGGLQSEDEANYYCASWDDTLNGLVFGGGTKLTVL
notes: Human IgG1 lambda
B4: antibody 2A6 (antibody, human IgG1, V domains shown)
VH: EVQLVESGGGLVKPGDSLTVSCVASGFTFSNYFIHWVRQAPGKGLEWVATISGRTKYMFYSDSLRGRFTVSRDNANNSVYLHMSSLRGEDTALYYCVRGYDHSDSNSAADLLHWGRGTLVTVSS
VL: NFMLTQPLSVSGYPGKTIVISCVRSSGSVASHYVQWFQQRPGSAPAMVIYEDSHRPSGIPDRFSGSVDASSNSASLTISGLKTEDEADYFCQSYYGNNQVLFGGGTKLTVL
modifications: partial N-linked glycosylation at Asn-76 of the VH
notes: Human antibody from a single B cell, cloned into human IgG1 lambda expression vectors and made in FreeStyle 293-F cells
B5: antibody AB (antibody, human IgG1, V domains shown)
VH: B4 VH
VL: B1 VL
notes: Combination of the 2A6 VH heavy chain and the 2B6 VL light chain; human IgG1 lambda; also called VH2A6/VL2B6
B6: antibody BA (antibody, human IgG1, V domains shown)
VH: B1 VH
VL: B4 VL
notes: Combination of the 2B6 VH heavy chain and the 2A6 VL light chain; human IgG1 lambda; also called VH2B6/VL2A6
B7: antibody 2A6_Q (antibody, human IgG1, V domains shown)
VH: B4 VH with N76Q
VL: B4 VL
notes: removes the N-glycosylation site of the VH; human IgG1 lambda; also called c2A6_Q
B8: antibody 2A6_A (antibody, human IgG1, V domains shown)
VH: B4 VH with N76A
VL: B4 VL
notes: removes the N-glycosylation site of the VH; human IgG1 lambda; also called c2A6_A

Key:
[1] = molecular target: T1, recombinant human IFN-γ protein; assay: BLI (Octet RED96), mAb captured on AHC biosensor, recombinant human IFN-γ in solution, 1:1 model; second experiment
Protocol: (§1) Antibody-binding kinetic rate constants (kₐ and kd) were measured by Bio-Layer Interferometry (BLI, ForteBio Octet RED96). […] Rate constants were calculated by curve fitting analyses (1:1 Langmuir model) of binding response with a 5-minute association and 15-minute dissociation interaction time.

[2] = molecular target: T1, recombinant human IFN-γ protein; assay: ELISA, biotinylated human IFN-γ on streptavidin plate, HRP anti-human IgG, OD 450-650 nm
Protocol: (§2) Recombinant human IFN-γ (R&D systems 285-IF-100) and Cynomolgus IFN-γ (R&D systems 961-RM-025) were biotinylated according to kit manual (EZ-Link NHS-LC-Biotin; Thermo #21336) and bound to streptavidin coated plate respectively. After incubated at room temperature for 1-2 hours, the plate was washed three times with 300 μL wash buffer. Serial dilutions of anti-IFN-γ antibody were added to wells. After incubated at room temperature for 1-2 hours, the plate was washed three times with 300 μL wash buffer. HRP anti-Human IgG was applied to each well at room temperature for 1 hour incubation. After washing, the plates were developed with TMB substrate, and analyzed under OD₄₅₀₋₆₅₀.

bovine serum albumin = molecular target: T3, bovine serum albumin (bovine, UniProt P02769 25-607); assay: ELISA, plate coated with 2 µg/mL BSA, anti-human IgG Fc-AP detection, OD 405 nm
T3 construct: also called BSA
T3 sequence (P02769 25-607 limits assumed): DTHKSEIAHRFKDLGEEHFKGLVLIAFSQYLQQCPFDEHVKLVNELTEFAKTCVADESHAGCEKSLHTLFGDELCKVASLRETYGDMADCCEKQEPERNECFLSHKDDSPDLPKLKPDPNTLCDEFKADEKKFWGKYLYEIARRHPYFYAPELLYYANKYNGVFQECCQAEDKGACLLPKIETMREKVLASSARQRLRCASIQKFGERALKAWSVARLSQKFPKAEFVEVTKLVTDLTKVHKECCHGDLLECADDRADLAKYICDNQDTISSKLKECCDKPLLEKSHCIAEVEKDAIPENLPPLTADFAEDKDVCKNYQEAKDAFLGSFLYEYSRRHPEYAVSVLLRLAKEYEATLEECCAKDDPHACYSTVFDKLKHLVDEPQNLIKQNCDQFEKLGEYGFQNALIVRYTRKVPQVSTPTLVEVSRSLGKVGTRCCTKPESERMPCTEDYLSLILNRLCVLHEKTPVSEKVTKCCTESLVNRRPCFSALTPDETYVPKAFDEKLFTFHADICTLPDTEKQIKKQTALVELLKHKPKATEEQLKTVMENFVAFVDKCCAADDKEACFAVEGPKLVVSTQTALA
Protocol: A clear polystyrene 96-well, flat-bottomed plate (Nunc) was coated with 100 μL of recombinant human IFN-γ protein (2 μg/mL) or BSA (2 μg/mL) in bicarbonate buffer (pH 9.6) per well and incubated at 4° C. overnight. The plate was washed three times using phosphate-buffered saline (PBS) with 0.05% Tween 20 and then blocked with 5% human normal serum albumin (Aventis) in PBS for 2 hours at 25° C. The plate was washed again using PBS with 0.05% Tween 20, after which each of 1E8, 2F2, 2A6, 2B6, AB and BA mAbs in two different concentrations of 1 μg/mL and 0.1 μg/mL were added into the wells of the plate for binding with the recombinant human IFN-γ protein, followed by reaction at 25° C. for 2 hours. The plate was thoroughly washed using PBS with 0.05% Tween 20, and then Fc-specific alkaline phosphatase-conjugated AffiniPure Goat anti-human IgG (Cappel) was added at a dilution ratio of 1:2500. The plate was placed for 90 minutes at 37° C. and then washed five times using PBS with 0.05% Tween 20. After adding p-Nitrophenyl phosphate (pNPP) solution (100 μL/well), the plate was placed at 37° C. for 30 minutes. Absorbance was determined at OD405 nm with a VICTOR X3 Multilabel Plate Reader (PerkinElmer).

[3] = molecular target: T2, rhesus macaque/cynomolgus IFN-γ; assay: ELISA, biotinylated rhesus macaque/cynomolgus IFN-γ on streptavidin plate, HRP anti-human IgG, OD 450-650 nm
Protocol: as §2

[4] = molecular target: T1, recombinant human IFN-γ protein; assay: cell-based or functional assay
[5] = molecular target: T1, recombinant human IFN-γ protein; assay: BLI (Octet RED96), mAb captured on AHC biosensor, recombinant human IFN-γ in solution, 1:1 model
Protocol: as §1

Row | Molecule | Kd [1] [pM] | koff [1] [s⁻¹] | kon [1] [M⁻¹ s⁻¹] | EC50 (read off the curve) [2] [ng/mL] | binding result (bovine serum albumin) | EC50 (read off the curve) [3] [ng/mL] | IC50, inhibition of IFN-γ induced HLA-DR expression on THP-1 cells [4] [ng/mL] | IC90, inhibition of IFN-γ induced HLA-DR expression on THP-1 cells [4] [ng/mL] | Kd [5] [pM] | koff [5] [s⁻¹] | kon [5] [M⁻¹ s⁻¹]
1 | AMG811 (antibody) | 34.7 | 8.59e-05 | 2.48e+06 | 5 | – | – | – | – | – | – | –
2 | B1 | 17.2 | 5.4e-05 | 3.13e+06 | ~7 | no binding (tested: 1.0 µg/mL) | ~5 | 3.5 | 1020 | 73.1 | 0.000108 | 1.48e+06
3 | B2 | – | – | – | – | no binding (tested: 1.0 µg/mL) | – | 8.6 | 48.6 | 261 | 0.000121 | 464000
4 | B3 | – | – | – | – | no binding (tested: 1.0 µg/mL) | – | 36.1 | 508 | 317 | 0.000109 | 344000
5 | B4 | 18.7 | 4.9e-05 | 2.61e+06 | ~7 | no binding (tested: 1.0 µg/mL) | ~5 | 3.4 | 3850 | 36.8 | 3.97e-05 | 1.08e+06
6 | B5 | 25 | 5.46e-05 | 2.19e+06 | ~7 | no binding (tested: 1.0 µg/mL) | ~5 | – | – | – | – | –
7 | B6 | – | – | – | – | no binding (tested: 1.0 µg/mL) | – | – | – | – | – | –
8 | B7 | 21.7 | 5.23e-05 | 2.41e+06 | ~7 | – | ~5 | – | – | – | – | –
9 | B8 | 22.3 | 5.17e-05 | 2.32e+06 | ~7 | – | ~5 | – | – | – | – | –
